Data reported in US12227771B2, “Expression systems and methods of use thereof” (Janssen Pharmaceutica NV, priority 2019, dated 2025).

B1: TMEM132C: Transmembrane protein 132C, SEQ ID NO: 6, co-transfected cDNA clone (protein, listed as Homo sapiens)
chain: MRSEGAAPGPAAPLCGALSLLLGALLGKVIEGHGVTDNIQRFSSLPPYLPVSYHILRAETSFFLKEANQDLLRNSSLQARVESFFTYKTRQPPVLNASYGPFSVEKVVPLDLMLTSNFLGPTNKFSFDWKLKAHILRDKVYLSRPKVQVLFHIMGRDWDDHGAGEKLPCLRVFAFRETREVRGSCRLKGDLGLCVAELELLSSWFSAPTVGAGRKKSMDQPEGTPVELYYTVHPGNERGDCAGGDFRKGNAIRPGKDGLEETTSHLQRIGTVGLYRAQDSAQLSELRLDGNVVIWLPSRPVKQGEVVTAYVTISSNSSVDLFILRAKVKKGVNILSAQTREPRQWGVKQEVGSGGKHVTATVACQRLGPSPRNRSSSLFNEVVQMNFEIASFSSLSGTQPITWQVEYPRKGTTDIAVSEIFVSQKDLVGIVPLAMDTEILNTAVLTGKTVAMPIKVVSVEENSAVMDISESVECKSTDEDVIKVSERCDYIFVNGKEIKGKMDAVVNFTYQYLSAPLCVTVWVPRLPLQIEVSDTELSQIKGWRVPIVTNKRPTRESEDEDEEERRGRGCALQYQHATVRVLTQFVSEGAGPWGQPNYLLSPNWQFDITHLVADFMKLEEPHVATLQDSRVLVGREVGMTTIQVLSPLSDSILAEKTITVLDDKVSVTDLAIQLVAGLSVALYPNAENSKAVTAVVTAEEVLRTPKQEAVFSTWLQFSDGSVTPLDIYDTKDFSLAATSQDEAVVSVPQPRSPRWPVVVAEGEGQGPLIRVDMTIAEACQKSKRKSILAVGVGNVRVKFGQNDADSSPGGDYEEDEIKNHASDRRQKGQHHERTGQDGHLYGSSPVEREEGALRRATTTARSLLDNKVVKNSRADGGRLAGEGQLQNIPIDFTNFPAHVDLPKAGSGLEENDLVQTPRGLSDLEIGMYALLGVFCLAILVFLINCATFALKYRHKQVPLEGQASMTHSHDWVWLGNEAELLESMGDAPPPQDEHTTIIDRGPGACEESNHLLLNGGSHKHVQSQIHRSADSGGRQGREQKQDPLHSPTSKRKKVKFTTFTTIPPDDSCPTVNSIVSSNDEDIKWVCQDVAVGAPKELRNYLEKLKDKA
B2: TMEM132A: Transmembrane protein 132A, SEQ ID NO: 5, co-transfected cDNA clone (protein, listed as Homo sapiens)
chain: MCARMAGRTTAAPRGPYGPWLCLLVALALDVVRVDCGQAPLDPVYLPAALELLDAPEHFRVQQVGHYPPANSSLSSRSETFLLLQPWPRAQPLLRASYPPFATQQVVPPRVTEPHQRPVPWDVRAVSVEAAVTPAEPYARVLFHLKGQDWPPGSGSLPCARLHATHPAGTAHQACRFQPSLGACVVELELPSHWFSQASTTRAELAYTLEPAAEGPGGCGSGEENDPGEQALPVGGVELRPADPPQYQEVPLDEAVTLRVPDMPVRPGQLFSATLLLRHNFTASLLTLRIKVKKGLHVTAARPAQPTLWTAKLDRFKGSRHHTTLITCHRAGLTEPDSSPLELSEFLWVDFVVENSTGGGVAVTRPVTWQLEYPGQAPEAEKDKMVWEILVSERDIRALIPLAKAEELVNTAPLTGVPQHVPVRLVTVDGGGALVEVTEHVGCESANTQVLQVSEACDAVFVAGKESRGARGVRVDFWWRRLRASLRLTVWAPLLPLRIELTDTTLEQVRGWRVPGPAEGPAEPAAEASDEAERRARGCHLQYQRAGVRFLAPFAAHPLDGGRRLTHLLGPDWLLDVSHLVAPHARVLDSRVASLEGGRVVVGREPGVTSIEVRSPLSDSILGEQALAVTDDKVSVLELRVQPVMGISLTLSRGTAHPGEVTATCWAQSALPAPKQEVALSLWLSFSDHTVAPAELYDRRDLGLSVSAEEPGAILPAEEQGAQLGVVVSGAGAEGLPLHVALHPPEPCRRGRHRVPLASGTAWLGLPPASTPAPALPSSPAWSPPATEATMGGKRQVAGSVGGNTGVRGKFERAEEEARKEETEAREEEEEEEEEMVPAPQHVTELELGMYALLGVFCVAIFIFLVNGVVFVLRYQRKEPPDSATDPTSPQPHNWVWLGTDQEELSRQLDRQSPGPPKGEGSCPCESGGGGEAPTLAPGPPGGTTSSSSTLARKEAGGRRKRVEFVTFAPAPPAQSPEEPVGAPAVQSILVAGEEDIRWVCEDMGLKDPEELRNYMERIRGSS
B3: CHAT: Choline O-acetyltransferase, SEQ ID NO: 3, co-transfected cDNA clone (protein, listed as Homo sapiens)
chain: MAAKTPSSEESGLPKLPVPPLQQTLATYLQCMRHLVSEEQFRKSQAIVQQFGAPGGLGETLQQKLLERQEKTANWVSEYWLNDMYLNNRLALPVNSSPAVIFARQHFPGTDDQLRFAASLISGVLSYKALLDSHSIPTDCAKGQLSGQPLCMKQYYGLFSSYRLPGHTQDTLVAQNSSIMPEPEHVIVACCNQFFVLDVVINFRRLSEGDLFTQLRKIVKMASNEDERLPPIGLLTSDGRSEWAEARTVLVKDSTNRDSLDMIERCICLVCLDAPGGVELSDTHRALQLLHGGGYSKNGANRWYDKSLQFVVGRDGTCGVVCEHSPFDGIVLVQCTEHLLKHMTQSSRKLIRADSVSELPAPRRLRWKCSPEIQGHLASSAEKLQRIVKNLDFIVYKFDNYGKTFIKKQKCSPDAFIQVALQLAFYRLHRRLVPTYESASIRRFQEGRVDNIRSATPEALAFVRAVTDHKAAVPASEKLLLLKDAIRAQTAYTVMAITGMAIDNHLLALRELARAMCKELPEMFMDETYLMSNRFVLSTSQVPTTTEMFCCYGPVVPNGYGACYNPQPETILFCISSFHSCKETSSSKFAKAVEESLIDMRDLCSLLPPTESKPLATKEKATRPSQGHQP
B4: TMEM132D: Transmembrane protein 132D, SEQ ID NO: 7, co-transfected cDNA clone (protein, listed as Homo sapiens)
chain: MCPSEMGTLWHHWSPVLISLAALFSKVTEGRGILESIQRFSLLPTYLPVTYHINNADVSFFLKEANQDIMRNSSLQSRVESFLIYKSRRLPVLNASYGPFSIEQVVPQDLMLPSNPFGFTNKFSLNWKLKAHILRDKVYLSRPKVQVLFHIMGRDWDDRSAGEKLPCLRVFAFRETREVRGSCRLQGDLGLCVAELELLSSWFSPPTVVAGRRKSVDQPEGTPVELYYTVHPGGERGDCVREDARRSNGIRTGHSDIDESGPPLQRIGSIFLYQTHRKPSLRELRLDNSVAIHYIPKTVRKGDVLTFPVSISRNSTEDRFTLRAKVKKGVNIIGVRASSPSIWDVKERTDYTGKYAPAVIVCQKKAAGSENSADGASYEVMQIDVEVEEPGDLPATQLVTWQVEYPGEITSDLGVSKIYVSPKDLIGVVPLAMEAEILNTAILTGKTVAVPVKVVSVEDDGTVTELLESVECRSSDEDVIKVSDRCDYVFVNGKEMKGKVNVVVNFTYQHLSSPLEMTVWVPRLPLQIEVSDTELNQIKGWRVPIVSSRRPAGDSEEEEDDERRGRGCTLQYQHAMVRVLTQFVAEAAGPGGHLAHLLGSDWQVDITELINDFMQVEEPRIAKLQGGQILMGQELGMTTIQILSPLSDTILAEKTITVLDEKVTITDLGVQLVTGLSLSLQLSPGSNRAIFATAVAQELLQRPKQEAAISCWVQFSDGSVTPLDIYDGKDFSLMATSLDEKVVSIHQDPKFKWPIIAAETEGQGTLVKVEMVISESCQKSKRKSVLAVGTANIKVKFGQNDANPNTSDSRHTGAGVHMENNVSDRRPKKPSQEWGSQEGQYYGSSSMGLMEGRGTTTDRSILQKKKGQESLLDDNSHLQTIPSDLTSFPAQVDLPRSNGEMDGNDLMQASKGLSDLEIGMYALLGVFCLAILVFLINCVTFALKYRHKQVPFEEQEGMSHSHDWVGLSNRTELLENHINFASSQDEQITAIDRGMDFEESKYLLSTNSQKSINGQLFKPLGPIIIDGKDQKSEPPTSPTSKRKRVKFTTFTAVSSDDEYPTRNSIVMSSEDDIKWVCQDLDPGDCKELHNYMERLHENV
B5: TMIE: Transmembrane inner ear expressed protein, SEQ ID NO: 4, co-transfected cDNA clone (protein, listed as Homo sapiens)
chain: MAGWPGAGPLCVLGGAALGVCLAGVAGQLVEPSTAPPKPKPPPLTKETVVFWDMRLWHVVGIFSLFVLSIIITLCCVFNCRVPRTRKEIEARYLQRKAAKMYTDKLETVPPLNELTEVPGEDKKKKKKKKKDSVDTVAIKVEEDEKNEAKKKKGEK

Target: T1, human α9α10 nAChR (Homo sapiens, UniProt Q9GZZ6+Q9UGM1)
T1 construct: expressed in transfected cells; host or cells: HEK293T
Experiment: FLIPR calcium assay of HEK293T cells co-transfected with α9α10 nAChR and cDNA clones, response evoked by 200 μM ACh
Assay type: cell-based
Settings: for FLIPR Response (Fold/Baseline) / functional expression of co-transfected α9α10 nAChR in cDNA library screen / combined effect of TMIE and CHAT on functional responses from α9α10 nAChR: 200 μM ACh; for FLIPR Response (Fold/Baseline): 180 s; for functional expression of co-transfected α9α10 nAChR in cDNA library screen: HEK293T, 20,000 cDNA clones; for FLIPR response evoked by 200 μM ACh: HEK293T transfected with α9α10 nAChR and the named protein; for combined effect of TMIE and CHAT on functional responses from α9α10 nAChR: HEK293T
Procedure: Human embryonic kidney 293T (HEK293T) cells were cultured in high glucose DMEM medium supplemented with 10% FBS, sodium pyruvate and penicillin/streptomycin. Prior to transfection, cells were seeded at ˜80-90% confluence in 384-well fluorescence imaging plate reader (FLIPR) assay plates. After a 4 hour (hr) incubation, wells of cells were individually co-transfected with human α9α10 nAChR plus one of 20,000 clones from cDNA libraries encoding most all human proteins (Origene Technologies; Rockville, Md.; Broad Institute; Cambridge, Mass.) using Fugene HD (Promega; Madison, Wis.) according to the manufacture's protocol. After two days incubation, cells were washed three times with assay buffer (137 mM NaCl, 4 mM KCl, 2 mM CaCl2, 1 mM MgCl2, 5 mM glucose, 10 mM HEPES pH7.4) and loaded with Calcium5 dye (Molecular Devices; San Jose, Calif.) and 1.25 mM probenecid for 1 hr at room temperature (RT). After three washes, the plates were placed in the FLIPR stage.
To further characterize the regulation of α9α10 nAChR expression, HEK293T cells were co-transfected with α9α10 nAChR and each of CHAT, TMIE, TMEM100, TMEM132A, TMEM132C, TMEM132D, TMEM132E and TNFRSF10A individually and in combination (Table 2).

[1] = HEK293T co-transfected with α9α10 nAChR + CHAT plus the named gene
[2] = HEK293T co-transfected with α9α10 nAChR plus the named gene

T1 sequence (Q9UGM1 23-479): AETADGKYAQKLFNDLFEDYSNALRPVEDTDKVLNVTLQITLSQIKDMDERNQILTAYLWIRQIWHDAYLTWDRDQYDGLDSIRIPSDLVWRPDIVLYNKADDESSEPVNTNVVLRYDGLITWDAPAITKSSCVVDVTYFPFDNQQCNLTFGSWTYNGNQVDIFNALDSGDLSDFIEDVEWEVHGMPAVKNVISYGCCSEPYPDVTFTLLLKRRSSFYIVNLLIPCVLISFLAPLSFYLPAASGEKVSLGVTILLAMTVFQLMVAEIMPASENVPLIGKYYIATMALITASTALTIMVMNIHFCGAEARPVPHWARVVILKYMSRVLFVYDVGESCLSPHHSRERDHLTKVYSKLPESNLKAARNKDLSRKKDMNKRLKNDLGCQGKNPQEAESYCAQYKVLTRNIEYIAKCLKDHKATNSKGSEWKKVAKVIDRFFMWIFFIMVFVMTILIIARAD
T1 sequence (Q9GZZ6 25-450): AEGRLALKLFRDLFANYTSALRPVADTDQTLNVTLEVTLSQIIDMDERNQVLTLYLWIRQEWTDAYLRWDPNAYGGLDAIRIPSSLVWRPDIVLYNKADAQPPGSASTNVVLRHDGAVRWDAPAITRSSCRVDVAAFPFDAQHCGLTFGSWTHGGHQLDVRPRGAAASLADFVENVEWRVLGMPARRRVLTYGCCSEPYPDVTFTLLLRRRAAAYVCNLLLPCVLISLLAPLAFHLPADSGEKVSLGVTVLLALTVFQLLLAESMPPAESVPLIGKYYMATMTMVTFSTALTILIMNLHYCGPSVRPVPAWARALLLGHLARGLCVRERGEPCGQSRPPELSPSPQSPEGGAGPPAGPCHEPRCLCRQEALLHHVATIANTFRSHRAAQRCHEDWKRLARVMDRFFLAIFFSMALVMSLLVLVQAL

Molecule	FLIPR Response (Fold/Baseline) [1]	FLIPR Response (Fold/Baseline) [2]	functional expression of co-transfected α9α10 nAChR in cDNA library screen	FLIPR response evoked by 200 μM ACh	combined effect of TMIE and CHAT on functional responses from α9α10 nAChR
B1	2.0 Fold/Baseline	0.7 Fold/Baseline	enabled functional expression	–	–
B2	2.5 Fold/Baseline	0.3 Fold/Baseline	enabled functional expression	–	–
B3	–	–	enabled functional expression	significant FLIPR responses	synergized to enhance functional responses
B4	2.6 Fold/Baseline	0.4 Fold/Baseline	enabled functional expression	–	–
B5	2.2 Fold/Baseline	0.7 Fold/Baseline	enabled functional expression	significant FLIPR responses	synergized to enhance functional responses
